Here are results for five molecules from patent US20150361176A1 (GlaxoSmithKline, published 2015).

Substitutions are numbered along the chain they refer to. Some results are limits rather than exact numbers.

For experiment [1], the target named is T1, human TGF-βRII on cells (SBE-bla HEK 293T cells; A549 cells) (human, UniProt P37173 23-567). The experiment is described as follows: cell-based or functional assay.
Experiment [2] deals with T2, recombinant human TGF-β RII/Fc chimera protein (human, UniProt P37173 24-159).
T2 construct: range 24-159; Made in HEK-F cells; Biotinylated where it was put on SA chips, otherwise captured by anti-human IgG; also called human TGFbRII/Fc; hRII-Fc; not shown: Fc region of human IgG1
Put plainly: SPR Biacore, against parent DOM23h-843.

In experiment [3] the target is T2, recombinant human TGF-β RII/Fc chimera …. The experiment is described as follows: SPR Biacore, purified dAb; antigen taken as human TGF-β RII/Fc.
Experiment [4] concerns the target T1, human TGF-βRII on cells (SBE-bla HEK …). Put plainly: cell-based or functional assay. The source holds these as a separate data set.
The target of experiment [5] is T2, recombinant human TGF-β RII/Fc chimera …. Put plainly: SPR Biacore, against parent DOM23h-855. Background: Surface plasmon resonance follows binding to a sensor surface in real time, without labels.
Experiment [6] shares this target. The experiment is described as follows: SPR Biacore.
The target of experiment [7] is T3, cynomolgus TGF-β RII/Fc (cynomolgus).
T3 construct: extracellular domain; also called Cyno TGFBRII; Cyno TGFbRII
Put plainly: SPR Biacore.

The target in experiment [8] is T1, human TGF-βRII on cells (SBE-bla HEK …). Put plainly: cell-based or functional assay. This is another data set of the same source.
Experiment [9] deals with T4, mouse TGF-βRII on MC3T3-E1 cells (mouse osteoblasts) (mouse, UniProt Q62312 24-567).
T4 sequence (looked up): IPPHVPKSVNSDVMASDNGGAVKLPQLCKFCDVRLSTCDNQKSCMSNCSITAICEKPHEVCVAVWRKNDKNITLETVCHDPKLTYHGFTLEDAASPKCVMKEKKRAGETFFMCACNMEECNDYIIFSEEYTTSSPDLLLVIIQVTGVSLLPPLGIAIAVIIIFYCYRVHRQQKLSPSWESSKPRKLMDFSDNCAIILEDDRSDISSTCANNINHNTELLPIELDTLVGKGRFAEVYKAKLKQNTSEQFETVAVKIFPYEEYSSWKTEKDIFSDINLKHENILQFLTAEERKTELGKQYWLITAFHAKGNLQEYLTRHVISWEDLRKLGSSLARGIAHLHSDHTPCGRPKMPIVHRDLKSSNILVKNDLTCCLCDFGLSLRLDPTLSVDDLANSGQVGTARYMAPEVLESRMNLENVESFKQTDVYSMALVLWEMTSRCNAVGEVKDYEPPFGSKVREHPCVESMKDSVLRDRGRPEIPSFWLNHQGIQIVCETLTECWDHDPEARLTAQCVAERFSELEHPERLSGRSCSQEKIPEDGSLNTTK
The experiment is described as follows: cell-based or functional assay.

Experiment [10] deals with T2, recombinant human TGF-β RII/Fc chimera …. Put plainly: SPR Biacore, human TGFbRII-FC, 1:1 model.
The target is the same in experiment [11]. Put plainly: SPR Biacore, against parent DOM23h-439.

T1 sequence (P37173 23-567): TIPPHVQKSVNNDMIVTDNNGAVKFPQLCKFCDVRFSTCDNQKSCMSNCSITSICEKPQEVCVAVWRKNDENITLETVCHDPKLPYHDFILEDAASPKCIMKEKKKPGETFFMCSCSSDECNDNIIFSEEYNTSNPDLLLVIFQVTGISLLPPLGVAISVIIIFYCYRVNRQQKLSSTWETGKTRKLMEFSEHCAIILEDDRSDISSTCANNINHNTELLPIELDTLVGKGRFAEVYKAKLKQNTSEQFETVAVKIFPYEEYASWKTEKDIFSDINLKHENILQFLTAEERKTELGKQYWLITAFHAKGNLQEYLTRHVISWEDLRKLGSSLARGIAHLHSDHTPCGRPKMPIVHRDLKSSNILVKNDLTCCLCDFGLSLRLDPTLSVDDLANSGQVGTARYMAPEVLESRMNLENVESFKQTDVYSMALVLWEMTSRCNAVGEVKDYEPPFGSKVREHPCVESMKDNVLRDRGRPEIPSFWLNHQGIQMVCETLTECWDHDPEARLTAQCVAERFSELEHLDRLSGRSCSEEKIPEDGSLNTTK
T2 sequence (P37173 24-159 limits assumed, change not shown): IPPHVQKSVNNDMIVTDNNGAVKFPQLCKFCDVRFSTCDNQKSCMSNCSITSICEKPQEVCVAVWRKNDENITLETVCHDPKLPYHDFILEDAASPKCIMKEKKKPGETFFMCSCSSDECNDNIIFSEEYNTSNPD

B1: DOM23h-843-13 (VHH)
VHH: EVQLLESGGGLVQPGGSLRLSCAASGFTFDQDRMWWVRQAPGKGLEWVSAIESGGHRTYYADSVKGRFTISRDNSKNTLYLQMNSLRAEDTAVYYCANQNKSGRSGFDYWGQGTLVTVSS
notes: human VH dAb, error-prone matured; expressed from pDOM13, tag not described
What is called Kd is a measure of binding affinity in units of concentration. Broadly, the koff is a measure of how fast the partners let go of each other. Broadly, the kon is a measure of how fast the partners come together. On to B1, for which the “Mean IC50 (nM), SBE-bla HEK 293T Cell Sensor assay (h2)” value (“Mean IC50 (nM)” below) in [1] stood at 540 nM. In [2], the “KD Fold improvement” value was 91.7 fold, the “ka Fold improvement” value was determined as 5.6 fold and the “kd Fold improvement” value was determined as 16.2 fold. For the same molecule, in experiment [3], the Kd was 4.13 nM, the koff turned out to be 0.0211 s⁻¹ and the kon was found to be 5.11e+06 M⁻¹ s⁻¹.

B2: DOM23h-855 (VHH)
VHH: EVQLLESGGGLVQPGGSLRLSCAASGFTFENTSMGWVRQAPGKGLEWVSRIDPKGSHTYYADSVKGRFTISRDNSKNTLYLQMNSLRAEDTAVYYCAKQRELGKSHFDYWGQGTLVTVSS
notes: human VH domain antibody (dAb), naive lead; parent of DOM23h-855-21; not shown: C-terminal FLAG tag from vector pDOM10
On to B2, for which, in experiment [4], the “IC50 nM, Mean (SBE-bla HEK 293T cell sensor assay, h2)” value was > 4470 nM. In experiment [1], the “Mean IC50 (nM)” value is > 25000 nM. Further, in experiment [3], the Kd is 941 nM, the koff stood at 0.315 s⁻¹ and the kon amounted to 335000 M⁻¹ s⁻¹.

B3: DOM23h-855-21 (VHH)
VHH: B2 VHH with A61T, H106Y
notes: as for B1
Consider B3, for which the “Mean IC50 (nM)” value in [1] amounted to 18600 nM. In addition, in experiment [5], the “KD Fold improvement” value came to 52.3 fold, the “ka Fold improvement” value was 5.6 fold and the “kd Fold improvement” value amounted to 9.4 fold. In addition, in [3], the dissociation constant (Kd) was found to be 18 nM, the koff was found to be 0.0336 s⁻¹ and the kon amounted to 1.86e+06 M⁻¹ s⁻¹.

B4: DOM23h-271-22 (VHH)
VHH: EVQLLESGGGLVQPGGSLRLSCAASGFTFTEYRMWWVRQAPGKGLEWVSAIEPIGNRTYYADSVKGRFTISRDNSKNTLYLQMNSLRAEDTAVYYCAKQMPGQKWMAKSRFDYWGQGTLVTVSS
notes: human VH dAb from DNA display; expressed from pDOM13
B4: in experiment [6], the Kd was 0.202 nM. In experiment [7], this molecule returned a Kd of 0.225 nM. Moreover, the “Human Cell sensor IC50” value in [8] is 39 nM. Moreover, in [9], the “Mouse 3T3 Luciferase assay IC50” value is > 17800 nM. Also, in experiment [10], the Kd is 0.286 nM, the koff is 0.000919 s⁻¹ and the kon was found to be 3.22e+06 M⁻¹ s⁻¹.

B5: DOM23h-439-20 (VHH)
VHH: EVQLLESGGGLVQPGGSLRLSCAASGFTFGTEQMWWVRQAPGKGLEFVSRIDSPGGRTYYADSVKGRFTISRDNSKNTLYLQMNSLRAEDTAVYYCAKRHAAGVSGTYFDYWGQGTLVTVSS
notes: as for B1
As for B5, in [1], the “Mean IC50 (nM)” value is 48 nM. For the same molecule, in [11], the “KD Fold improvement” value was found to be 30.3 fold, the “ka Fold improvement” value amounted to 2.1 fold and the “kd Fold improvement” value turned out to be 14.2 fold. For the same molecule, in experiment [3], the Kd was 0.799 nM, the off-rate (koff) worked out at 0.00354 s⁻¹ and the kon came out at 4.43e+06 M⁻¹ s⁻¹.
